Reference: the RNAGym collection of RNA variant scans (doi:10.1073/pnas.2313332121)

B1: TPR t1 (parent)
chain: GACCAAUCUGCCCUCAGAGCUCGAGAACAUCUUCGGAUGCAGAGGAGGCAGGCUUCGGUGGCGCGAUAGCGCCAACGUCCUCAACCUCCAAUGCAUCCCACCACAUGAUGAUGCCUGAAGAGCCUUGGUUUUUUG

Variants of: B1
Assay: polymerase ribozyme fitness, log enrichment relative to wild type (log ratio); higher = more active; in vitro selection for triplet polymerase activity
Summary of the method: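 A single round of triplicate in vitro selection, including frozen incubation at −7 °C, was applied to PCR-built, transcribed mutant libraries of each subunit of a heterodimeric triplet polymerase ribozyme. Illumina sequencing of input and output libraries retained genotypes with ≥10 input reads and ≥1 read per output. Fitness is the base-2 logarithm of genotype enrichment divided by wild-type enrichment, from inverse-variance-weighted replicate averages.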

Variant | polymerase ribozyme fitness (log ratio)
GACCAAUCUGUCCUCAGAGCUCGAGAACAUCUUCGGAUGCAGAGGAGGCAGGCUUCGGUGGCGCGAUAGCGCCCACGUCCUCAACCUCCAAUGCAUCCCACCACAUGAUGUUGCCUGAAGAGCCUUGGUUUUUUG [C11U A74C A111U] | -3.83
GACCAAUCUGUCCUCAGAGCUCGAGAACAUCUUCGGAUGCAGAGGAGGCAGGCUUCGGUGGCGCGAUAGCGCCUACGUCCUCAACCUCCAAUGCAUCCCACCACAUGAGGAUGCCAGAAGAGCCUUGGUUUUUUG [C11U A74U U109G U116A] | -6.7
GACCAAUCUGUCCUCAGAGCUCGAGAACAUCUUCGGAUGCAGAGGAGGCAGGCUUCGGUGGCGCGAUAGCGCCAACGUCCUCCACCUCCAAUGCAUCCCACCACAUGAUGAUGCCUGAAGAGCCUUGGUUUUUUG [C11U A83C] | -0.558
GACCAAUCUGUCCUCAGAGCUCGAGAACAUCUUCGGAUGCAGAGGAGGCAGGCUUCGGUGGCGCGAUAGCGCCAACGUCCUCAGCCUCAAAUGCAUCCCACCACAUGAUGAUGCCUGAAGAGCCUUGGUUUUUUG [C11U A84G C89A] | -4
GACCAAUCUGUCCUCAGAGCUCGAGAACAUCUUCGGAUGCAGAGGAGGCAGGCUUCGGUGGCGCGAUAGCGCCAACGUCCUCAGCCUCUAAUUCAUCCCACCACAUGAUGAUGCCUGAAGAGCCUUGGUUUUUUG [C11U A84G C89U G93U] | -2.61
GACCAAUCUGUCCUCAGAGCUCGAGAACAUCUUCGGAUGCAGAGGAGGCAGGCUUCGGUGGCGCGAUAGCGCCAACGUCCUCAACCUCCAAUGCAUCCCCCCACAUGAUGAUGCCUGAAGAGCCUUGGUUUUUUG [C11U A100C] | -1.31
GACCAAUCUGUCCUCAGAGCUCGAGAACAUCUUCGGAUGCAGAGGAGGCAGGCUUCGGUGGCGCGAUAGCGCCAACGUCCUCAACCUCCAAUGCAUCCCACCACCUGAUGAUGCCUGGAGAGCCUUGGUUUUUUG [C11U A105C A118G] | -2.52
GACCAAUCUGUCCUCAGAGCUCGAGAACAUCUUCGGAUGCAGAGGAGGCAGGCUUCGGUGGCGCGAUAGCGCCAACGUCCUCAACCUCCAAUGCAUCCCACCACAUGAUGAUGCCUGUAGAGCCUUGGUUUUUUG [C11U A118U] | -0.464
GACCAAUCUGUACUCAGAGCUCGAGAACAUCUUCGGAUGCCGAGGAGGCAGGCUUGGGUGGCGCGAUAUCGCCAACGUCCUCAACCUCCAAUGCAUCCCACCACAUGAUGAUGCCUGAAGAGCCUUGGUUUUUUG [C11U C12A A41C C56G G69U] | -2.94
GACCAAUCUGUACUCAGAGCUCGAGAACAUCUUCGGAUGCAGAGGAGGCAGGCUUCGGUGGCGCGAUAGCGCCAACGUCCUCAACCUCCAAUGCACCCCACCACAUGAUGAUGCCUGAAGAGCCUUGGUUUUUUG [C11U C12A U96C] | -2.18
GACCAAUCUGUGCUUAGAGCUCGAGAAGAUCUUCGGAAGCAGAGGAGGCAGGCUUUGGUGGCGCGAUACCGCCAACGUCCUCAACCUCCAAUGCAUCCCACCACAUGAUGAUGCCUGAAAAGCCUUGGUUUUUUG [C11U C12G C15U C28G U38A C56U G69C G120A] | -7.02
GACCAAUCUGUUCUUAGAGCUCGAGAACAUCUUCGGAUGCAGAGGAGGCAGGAUUCGGUGGCGCGAUAGCGCCAACGUCUUCAACCUUCAAUGCAUCCCACCAUAUGAUGUUGCCUGGAGAGCCUUGGUUUUUUG [C11U C12U C15U C53A C80U C88U C104U A111U A118G] | -6.72
GACCAAUCUGUCAUCAGAGCUCGAGAACAUCUUCGGAUGCAGAGGAGGCAGGCUUCGGUGGCGCGAUAGCGCCAACGUCCUCAACCUUCAAUGCAUCCCACCACAUGAUGAUGCCUGAAGAGCCUUGGUUUUUUG [C11U C13A C88U] | -2.38
GACCAAUCUGUCUUCAGGGCUCGAGAACAUCUUCGGAUGCAGAGGAGGCAGGCUUUGGUGGCGCGAUAGCGCCAACGUCCUCAACCUCCAAUGCAUCCCACCACAUGAAGAUGCCUGAAGAGCCUUGGUUUUUUG [C11U C13U A18G C56U U109A] | -4.43
GACCAAUCUGUCUUCAGAGCUCGAGAACAUCUUCGGAUGCAGAGGAGGCCGGCUUCGGUGGCGCGAUAGCGCCAACGUCCUCAACCUCCAAUGCAUCCCACCCCAUGAUGAUGCCUGAAGAGCCAUGGUUUUUUG [C11U C13U A50C A103C U125A] | -5.37
GACCAAUCUGUCUUCAGAGCUGGAGAACAUCUUCGGAUGCAGAGGAGGCAGGCUUCGGUGGCGCGAUAGCGCCAACGUCCUAAACCUCCAAUGCAUCCCACCACAUGAUGAUGCCUGAAGAGCCUUGGUUUUUUG [C11U C13U C22G C82A] | -4.12
GACCAAUCUGUCUUCAGAGCUCGAGAACAUCUUCGGAUGCAGAGGAGGCAGGUUUCGGUGGCUCGAUAGCGCCAACGUCCUCAACCUCCAAGGCAUCCCACCAUAUGAUGAAGCCUGAAGAGCCUUGGUUUUUUG [C11U C13U C53U G63U U92G C104U U112A] | -4.22
GACCAAUCUGUCUUCAGAGCUCGAGAACAUCUUCGGAUGCAGACGAGGCAGGCUUCGGUGGCGCGAUAGCGCCAACGUCCUCAACGUCCAAUGCAUCCCACCACAUGAUGAUGCCCGAAGAGCCUUGGUUUCUUG [C11U C13U G44C C86G U116C U132C] | -1.99
GACCAAUCUGUCCUACGAGCUCGAGAACAUCUGCGGAUGCAGAGGAGGGAGGCUUCGGUAGCGCAAUAGCGCCAACGUACUCAACCUCCCAUGCAUCCCACCACAUGAAGAUGCCUGAAGAGCCUUGGUUUUUUG [C11U C15A A16C U33G C49G G60A G65A C79A A90C U109A] | -8.01
GACCAAUCUGUCCUAAGAGCUCGAGAACAUCUUCGGAUGCAGAGGAGGCAGGCUUUGGUGGCGCGAUAGCGCCAACGUCCUCAACCUCCAAUGCAUCCCACCACAUGAUGAUGCCUGAAGAGCCUUGGUUUUUUG [C11U C15A C56U] | -1.47
GACCAAUCUGUCCUAAGAGCUCGAGAACAUCUUCGGAUGCAGAGGAGGCAGGCUUCGGUGGCGCGAUAGCGCCAACGUCCUCAACCUCCAAUGCAUCCCAGCACAUGAUGAUGCCUGAAGAGCCUUGGUUUUUUG [C11U C15A C101G] | -3.87
